Key:
Experiment in all cases: cell-based or functional assay
[1] = molecular target: HIV-1 JR-CSF Env T319A (HIV-1 (isolate JR-CSF, clade B)) (UniProt P20871)
[2] = molecular target: HIV-1 JRFL Env (pseudovirus) (HIV-1)
[3] = molecular target: HIV-1 MGRM-C-026 Env (pseudovirus) (HIV-1)
[4] = molecular target: HIV-1 envelope glycoprotein (Env) of isolate 92UG024 (HIV-1)
[5] = molecular target: HIV-1 envelope glycoprotein (Env) of isolate JRCSF (HIV-1) (UniProt P20871)
[6] = molecular target: HIV-1 envelope glycoprotein (Env) of isolate MGRM-D-018 (HIV-1)
[7] = molecular target: HIV-1 92RW020 envelope glycoprotein (Env) (HIV-1)
[8] = molecular target: HIV-1 94UG103 envelope glycoprotein (Env) (HIV-1)
[9] = molecular target: HIV-1 MGRM-AG-005 envelope glycoprotein (Env) (HIV-1)
[10] = molecular target: HIV-1 MGRM-D-001 envelope glycoprotein (Env) (HIV-1)
[11] = molecular target: HIV-1 93IN905 envelope glycoprotein (Env) on virus (HIV-1, clade C, isolate 93IN905)
[12] = molecular target: HIV-1 JRFL envelope glycoprotein (Env) on virus (HIV-1, clade B, isolate JRFL)
[13] = molecular target: HIV-1 JR-CSF Env N241A (HIV-1 (isolate JR-CSF)) (UniProt P20871)
[14] = molecular target: HIV-1 JR-CSF Env R315A (HIV-1 (isolate JR-CSF, clade B)) (UniProt P20871)
[15] = molecular target: HIV-1 Env of pseudovirus AC10 (HIV-1)
[16] = molecular target: HIV-1 Env of pseudovirus CAAN (HIV-1)
[17] = molecular target: HIV-1 Env of pseudovirus THRO.18 (HIV-1)
[18] = molecular target: HIV-1 JR-FL Env E168K, on pseudovirus (HIV-1 isolate JR-FL (clade B))
[19] = molecular target: HIV-1 Env of isolate 94UG103 (clade A) (HIV-1)
[20] = molecular target: HIV-1 Env of isolate MGRM-C-026 (clade C) (HIV-1)
[21] = molecular target: HIV-1 Env of isolate NL43 (clade B) (HIV-1)
[22] = molecular target: HIV-1 Env of isolate JRFL (subtype B), on pseudovirus (HIV-1)
[23] = molecular target: HIV-1 Env of isolate MGRM-F1-015 (subtype F) (HIV-1)
[24] = molecular target: HIV-1 Env of pseudovirus 98CN006 (HIV-1)
[25] = molecular target: HIV-1 envelope glycoprotein (Env) of isolate 92UG037 (HIV-1)
[26] = molecular target: HIV-1 APV17 Env (HIV-1 isolate APV17 (clade B))
[27] = molecular target: HIV-1 JRFL Env (HIV-1 isolate JRFL (clade B))
[28] = molecular target: HIV-1 94UG103 envelope glycoprotein (Env), clade A pseudovirus (HIV-1)
[29] = molecular target: HIV-1 APV17 envelope glycoprotein (Env), clade B pseudovirus (HIV-1)
[30] = molecular target: HIV-1 APV6 envelope glycoprotein (Env), clade B pseudovirus (HIV-1)
[31] = molecular target: HIV-1 CMU02 envelope glycoprotein (Env), clade AE pseudovirus (HIV-1)
[32] = molecular target: HIV-1 JR-CSF Env K343A (HIV-1 isolate JR-CSF) (UniProt P20871)
[33] = molecular target: HIV-1 NL43 envelope glycoprotein (Env), clade B pseudovirus (HIV-1)

Chain of 1443_C16 (PG16) (TCN-116) (antibody) (VH): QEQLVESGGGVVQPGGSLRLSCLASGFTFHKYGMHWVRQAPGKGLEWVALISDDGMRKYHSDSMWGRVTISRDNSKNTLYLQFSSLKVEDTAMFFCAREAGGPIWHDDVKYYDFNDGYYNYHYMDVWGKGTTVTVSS
Chain of 1443_C16 (PG16) (TCN-116) (antibody) (VL): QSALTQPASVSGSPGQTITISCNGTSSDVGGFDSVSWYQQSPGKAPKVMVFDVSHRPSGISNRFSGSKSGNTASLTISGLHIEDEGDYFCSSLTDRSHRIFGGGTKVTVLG
Chain of 5329_C19 (PGT-136) (antibody) (VH): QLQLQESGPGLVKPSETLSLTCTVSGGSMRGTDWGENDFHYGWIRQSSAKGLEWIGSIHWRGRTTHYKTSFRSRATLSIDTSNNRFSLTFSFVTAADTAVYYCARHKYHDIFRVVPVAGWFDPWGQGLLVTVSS
Chain of 5329_C19 (PGT-136) (antibody) (VL): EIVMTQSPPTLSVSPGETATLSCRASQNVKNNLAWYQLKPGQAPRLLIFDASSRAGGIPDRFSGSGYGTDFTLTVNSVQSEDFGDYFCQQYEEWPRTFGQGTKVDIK

For 5147_N06 (PGT-130) (antibody), the Fold IC50 increase relative to wild-type [1] was 1.6 fold.

5123_A06 (PGT-125) (antibody) was tested, and the Neutralization by PGT-125, IC50 [2] was 0.0156 µg/mL, the Neutralization by PGT-125, IC80 [2] was 0.0462 µg/mL and the Neutralization by PGT-125, IC90 [2] was 0.0873 µg/mL. For the same substance, the Neutralization by PGT-125, IC95 [2] was 0.157 µg/mL, the Neutralization by PGT-125, IC50 [3] was 0.0106 µg/mL and the Neutralization by PGT-125, IC80 [3] was 0.035 µg/mL. The Neutralization by PGT-125, IC90 [3] was 0.0705 µg/mL and the Neutralization by PGT-125, IC95 [3] was 0.134 µg/mL.

With 5141_B17 (PGT-126) (antibody) the Neutralization IC80 [4] was greater than 10 µg/mL, the Neutralization IC90 [4] was greater than 10 µg/mL and the Neutralization IC95 [4] was greater than 10 µg/mL. The neutralization IC50 [4] was greater than 10 µg/mL, the Neutralization IC80 [5] was 0.018 µg/mL and the Neutralization IC90 [5] was 0.0339 µg/mL. It also gave a Neutralization IC95 [5] of 0.0608 µg/mL, a neutralization IC50 [5] of 0.0061 µg/mL and a Neutralization IC80 [6] of 0.0391 µg/mL. It also gave a Neutralization IC90 [6] of 0.0918 µg/mL, a Neutralization IC95 [6] of 0.205 µg/mL and a neutralization IC50 [6] of 0.0093 µg/mL.

For 5329_C19 (PGT-136) (antibody), the Neutralization IC80 [7] was greater than 10 µg/mL, the Neutralization IC90 [7] was greater than 10 µg/mL and the Neutralization IC95 [7] was greater than 10 µg/mL. For the same substance, the neutralization IC50 [7] was 0.738 µg/mL, the Neutralization IC80 [8] was greater than 10 µg/mL and the Neutralization IC90 [8] was greater than 10 µg/mL. The Neutralization IC95 [8] was greater than 10 µg/mL, the neutralization IC50 [8] was greater than 10 µg/mL and the Neutralization IC80 [9] was greater than 10 µg/mL. It also gave a Neutralization IC90 [9] greater than 10 µg/mL, a Neutralization IC95 [9] greater than 10 µg/mL and a neutralization IC50 [9] greater than 10 µg/mL. For the same substance, the Neutralization IC80 [10] was greater than 10 µg/mL, the Neutralization IC90 [10] was greater than 10 µg/mL and the Neutralization IC95 [10] was greater than 10 µg/mL. It also gave a neutralization IC50 [10] greater than 10 µg/mL.

Work on 4877_D15 (PGT-122) (antibody) yielded a Neutralization IC80 [11] of 0.0505 µg/mL, a Neutralization IC90 [11] of 0.108 µg/mL and a Neutralization IC95 [11] of 0.217 µg/mL. For the same substance, the neutralization IC50 [11] was 0.0138 µg/mL, the Neutralization IC80 [12] was 0.166 µg/mL and the Neutralization IC90 [12] was 0.342 µg/mL. For the same substance, the Neutralization IC95 [12] was 0.659 µg/mL and the neutralization IC50 [12] was 0.0471 µg/mL.

Work on 5343_B08 (PGT-135) (antibody) yielded a Fold IC50 increase relative to wild-type [13] of 0.1 fold and a Fold IC50 increase relative to wild-type [14] of 1.8 fold.

Substance 1443_C16 (PG16) (TCN-116) (antibody) has an IC50, pseudovirus neutralization (TZM-bl assay) [15] of less than 0.01 µg/mL, an IC50, pseudovirus neutralization (TZM-bl assay) [16] of 6.37 µg/mL and an IC50, pseudovirus neutralization (TZM-bl assay) [17] of 2.19 µg/mL. For the same substance, the IC50 (ug/ml), pseudovirus neutralization, TZM-bl assay [18] was 0.006 µg/mL.

1496_C09 (PG9) (TCN-109) (antibody) gave a Neutralization IC80 [19] of 1.95 µg/mL, a Neutralization IC90 [19] of 5.54 µg/mL and a neutralization IC50 [19] of 0.31 µg/mL. It also gave a neutralization IC50 [20] of 0.113 µg/mL and a neutralization IC50 [21] of 0.687 µg/mL.

Substance PGV04 (antibody) has an IC50, single-round pseudovirus neutralization [22] of 0.032 µg/mL, an IC50 (µg/mL), pseudovirus neutralization [23] of 0.179 µg/mL and an IC50, pseudovirus neutralization [24] of 1.32 µg/mL. For the same substance, the IC50 [25] was 0.145 µg/mL.

4838_L06 (PGT-121) (antibody) gave a Neutralization IC80 [26] of 0.371 µg/mL, a Neutralization IC90 [26] of 0.799 µg/mL and a Neutralization IC95 [26] of 1.55 µg/mL. The Neutralization IC80 [27] was 0.0806 µg/mL, the Neutralization IC90 [27] was 0.151 µg/mL and the Neutralization IC95 [27] was 0.267 µg/mL.

In the case of 4858_P08 (PGT-123) (antibody), the IC50, pseudovirus neutralization [28] is reported as 0.846 µg/mL, the IC80 (pseudovirus neutralization) [28] is reported as 3.29 µg/mL and the IC90 (pseudovirus neutralization) [28] is reported as 8.56 µg/mL. It also gave an IC95 (pseudovirus neutralization) [28] greater than 10 µg/mL, an IC50, pseudovirus neutralization [29] of 0.18 µg/mL and an IC80 (pseudovirus neutralization) [29] of 0.539 µg/mL. The IC90 (pseudovirus neutralization) [29] was 1.01 µg/mL, the IC95 (pseudovirus neutralization) [29] was 1.75 µg/mL and the IC50, pseudovirus neutralization [30] was 0.0328 µg/mL. It also gave an IC80 (pseudovirus neutralization) [30] of 0.145 µg/mL, an IC90 (pseudovirus neutralization) [30] of 0.339 µg/mL and an IC95 (pseudovirus neutralization) [30] of 0.726 µg/mL. The IC50, pseudovirus neutralization [31] was greater than 10 µg/mL, the IC80 (pseudovirus neutralization) [31] was greater than 10 µg/mL and the IC90 (pseudovirus neutralization) [31] was greater than 10 µg/mL. It also gave an IC95 (pseudovirus neutralization) [31] greater than 10 µg/mL, a Fold IC50 increase relative to wild-type [32] of 0.3 fold and an IC50, pseudovirus neutralization [33] greater than 10 µg/mL. It also gave an IC80 (pseudovirus neutralization) [33] greater than 10 µg/mL, an IC90 (pseudovirus neutralization) [33] greater than 10 µg/mL and an IC95 (pseudovirus neutralization) [33] greater than 10 µg/mL.

Reference: patent US20240132578A1
